For 1 molecule, binding result and Kd results are on record in patent US20130171130A1 (ZymoGenetics, published 2013).

In assay [1] the target is T1, IL-20RA (expressed alone on BHK cells) (human, UniProt Q9UHF4 30-553).
T1 construct: BHK cells stably transfected with IL-20RA only; also called ZcytoR7; IL-20 receptor alpha chain
T1 sequence: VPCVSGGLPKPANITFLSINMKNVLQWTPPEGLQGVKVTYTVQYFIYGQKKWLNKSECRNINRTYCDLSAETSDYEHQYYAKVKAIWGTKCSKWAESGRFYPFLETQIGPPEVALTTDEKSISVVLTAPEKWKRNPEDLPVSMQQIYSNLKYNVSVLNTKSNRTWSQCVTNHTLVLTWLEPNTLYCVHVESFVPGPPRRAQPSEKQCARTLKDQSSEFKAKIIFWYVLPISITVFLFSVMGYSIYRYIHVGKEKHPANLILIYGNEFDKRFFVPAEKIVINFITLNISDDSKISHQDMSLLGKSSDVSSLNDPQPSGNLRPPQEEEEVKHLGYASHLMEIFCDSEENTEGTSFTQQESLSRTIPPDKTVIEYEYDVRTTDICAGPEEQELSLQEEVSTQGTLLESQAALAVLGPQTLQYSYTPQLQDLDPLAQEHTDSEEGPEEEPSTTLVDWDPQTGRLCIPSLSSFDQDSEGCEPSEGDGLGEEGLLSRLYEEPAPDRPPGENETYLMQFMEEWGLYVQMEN
Description: radiolabeled ligand binding on stably transfected BHK cells. How it is done:
(§1) The specificity and affinity of IL-20 for its receptor was determined using BHK cells stably transfected with IL-20RA, IL-20RB or both receptor subunits. […] Binding of ¹²⁵I-labeled IL-20 was eliminated in the presence of 100-fold excess of unlabeled IL-20 but not with 100-fold excess of the unrelated cytokine, IL-21.

Assay [2] has as its target T2, IL-20RB (expressed alone on BHK cells) (human, UniProt Q6UXL0 30-311).
T2 construct: BHK cells stably transfected with IL-20RB only; also called DIRS1; IL-20 receptor beta chain
T2 sequence: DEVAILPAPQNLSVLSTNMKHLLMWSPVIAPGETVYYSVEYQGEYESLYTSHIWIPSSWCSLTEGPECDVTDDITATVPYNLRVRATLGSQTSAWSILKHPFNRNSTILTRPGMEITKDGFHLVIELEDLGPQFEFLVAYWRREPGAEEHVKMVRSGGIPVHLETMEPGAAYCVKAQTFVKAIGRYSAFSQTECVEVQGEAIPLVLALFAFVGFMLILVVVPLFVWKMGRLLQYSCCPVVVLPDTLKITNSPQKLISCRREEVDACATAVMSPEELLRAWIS
The assay is described as above. As to the method: as §1

In assay [3] the target is T3, IL-20RA/IL-20RB heterodimeric receptor (human, UniProt Q9UHF4 30-553; Q6UXL0 30-311).
T3 construct: Both subunits co-expressed on transfected COS, BHK or BaF3 cells, or endogenous on HaCaT keratinocytes; also called IL-20RB/IL-20RA heterodimer; IL-20 receptor
T3 sequence 1: T1 sequence
T3 sequence 2: T2 sequence
Description: 125I-labeled IL-20 binding on BHK cells expressing IL-20RA and IL-20RB. As to the method: as §1

B1: IL-20 (Interleukin-20) (ligand, UniProt Q9NYY1 25-176, looked up)
chain: LKTLNLGSCVIATNLQEIRNGFSEIRGSVQAKDGNIDIRILRRTESLQDTKPANRCCLLRHLLRLYLDRVFKNYQTPDHYTLRKISSLANSFLTIKKDLRLCHAHMTCHCGEEAMKKYSQILSHFEKLEPQAAVVKALGELDILLQWMEETE
notes: also called Zcyto10; IL-20 protein
Turning to B1, the binding result in assay [1] and in assay [2] was “no binding” throughout. Moreover, the Kd in assay [3] is approximately 1.5 nM.

By Kd is commonly meant the concentration at which binding is half-saturated. A lower Kd goes with higher affinity.
